Legend:
[1] = target: T1, human EGFR (human, UniProt P00533 25-645); assay: ELISA, plate coated with 0.1 µg/ml human EGFR, antibody serially diluted
T1 construct: also called human HER1 (EGFR) (Sino Biological)

[2] = target: T2, human HER2 (human, UniProt P04626 23-652); assay: ELISA, plate coated with 0.1 µg/ml human HER2, antibody serially diluted
T2 construct: also called human HER2 (Sino Biological)

[3] = target: T3, human HER3 expressed at the cell surface (human, UniProt P21860 20-1342); assay: flow cytometry on HEK293 cells overexpressing human HER3 (HEK293 O/E H3), antibody 20 µg/ml, FITC anti-Fc secondary; same antibody on WT HEK293: 0.60
T3 construct: also called HEK293 HER3 O/E cells; HEK293 cells transfected with vector encoding human HER3

[4] = target: T3, human HER3 expressed at the cell surface; assay: as above; remark: listed apart in the source
[5] = target: T4, recombinant human HER3 polypeptide (His-tagged) (human, UniProt P21860 20-643, biotinylated in the HER2 (Example 4.1) and EGFR (Example 8.7) dimerisation ELISAs); assay: plate ELISA of the EGFR:HER3 interaction: human EGFR-His coat, HER3-biotin 4 µg/ml and NRG 0.1 µg/ml with titrated antibody, avidin HRP detection; blocked partner EGFR-His
T4 construct: Soluble recombinant human HER3 preparations of the ELISA, BLI and dimerisation assays are gathered here; also called His-tagged human HER3; human HER3 polypeptide (Sino Biological); not shown: His tag

[6] = target: T3, human HER3 expressed at the cell surface; assay: flow cytometry on HEK293 cells overexpressing human HER3 (HEK293 O/E H3), antibody 20 µg/ml, FITC anti-Fc secondary; same antibody on WT HEK293: 1.91
[7] = target: T4, recombinant human HER3 polypeptide …; assay: ELISA, plate coated with human HER3, antibody serially diluted

B1: anti-HER3 clone 10D1 IgG1 (antibody)
heavy: not shown
light: DIVMTQSQKFMSTSVGDRVSVTCKASQIVGSNVAWYQQKPGQSPKPLIYSASYRYSGVPDRFTASGSGTDFTLTITNVQSEDLAEYFCQQYSSHPLTFGAGTKLELKRTVAAPSVFIFPPSDEQLKSGTASVVCLLNNFYPREAKVQWKVDNALQSGNSQESVTEQDSKDSTYSLSSTLTLSKADYEKHKVYACEVTHQGLSSPVTKSFNRGEC
notes: Human-mouse chimeric IgG1 kappa; also called 10D1P; 10D1 (parental)
Question: What does the source list for B1?
Answer: binding result [1]: no binding (tested: about log -6.7 M (10 µg/ml per paragraph 597)); binding result [2]: no binding (tested: about log -6.7 M (10 µg/ml per paragraph 597)); % Parent (HER3 positive) [3]: 99%; % Parent (HER3 positive) [4]: 99%

B2: MM-121 (antibody, V domains shown)
VH: EVQLLESGGGLVQPGGSLRLSCAASGFTFSAYNMRWVRQAPGKGLEWVSVIYPSGGATRYADSVKGRFTISRDNSKNTLYLQMNSLRAEDTAVYYCARGYYYYGMDVWGQGTLVTVSS
VL: QSVLTQPPSASGTPGQRVTISCSGSDSNIGRNYIYWYQQFPGTAPKLLIYRNNQRPSGVPDRISGSKSGTSASLAISGLRSEDEAEYHCGTWDDSLSGPVFGGGTKLTVL
Question: Which IC50 [5] does the source give for B2 here?
Answer: The IC50 was 54.2 nM.

B3: anti-HER3 antibody clone LJM716 (antibody, V domains shown)
VH: EVQLLESGGGLVQPGGSLRLSCAASGFTFSSYAMSWVRQAPGKGLEWVSAINSQGKSTYYADSVKGRFTISRDNSKNTLYLQMNSLRAEDTAVYYCARWGDEGFDIWGQGTLVTVSS
VL: DIQMTQSPSSLSASVGDRVTITCRASQGISNWLAWYQQKPGKAPKLLIYGASSLQSGVPSRFSGSGSGTDFTLTISSLQPEDFATYYCQQYSSFPTTFGQGTKVEIK
Question: With B3 as the binder, how does the “% Parent (HER3 positive)” value [6] read?
Answer: Its value is 99.5%.

B4: anti-HER3 clone 10D1_c91 IgG1 (antibody, V domains shown)
VH: QVQLQESGPGLVKPSQTLSLTCTVSGYYITSGYSWHWIRQHPGKGLEWIGSIRYSGGTDYNPSLKSLATISADTSKNQFSLKLSSVTAADTAVYYCARMTTAPWYPFDYWGQGTAVTVSS
VL: DIQMTQSPSSVSASVGDRVTITCKASQIVGSNVAWYQQKPGKAPMPLIYSASYGYSGVPSRFSGSGSGTDFTLTISSLQPEDFATYYCQQYSSHPLTFGQGTKLEIKR
notes: Humanised 10D1 variant, IgG1 kappa; also called [18]
Question: For B4, which “EC50 (read off the curve)” value [7] is on record?
Answer: Its value is about 6 ng/mL.
